Measured values from paper PMC3014896.

Columns and labels:
[1] = target: HLMWb5 A59S mutant (human) (UniProt P00167)
[2] = target: HLMWb5 A59V mutant (human) (UniProt P00167)
[3] = target: HLMWb5 G67A mutant (human) (UniProt P00167)
[4] = target: HLMWb5 G67S mutant (human) (UniProt P00167)
[5] = target: HLMWb5 L51I mutant (human) (UniProt P00167)
[6] = target: full-length form of human cytochrome b5 (human) (UniProt P00167)
[7] = target: HLMWb5 A59S mutant (human) (UniProt P00167); remark: listed apart in the source
[8] = target: HLMWb5 A59V mutant (human) (UniProt P00167); remark: listed apart in the source
[9] = target: HLMWb5 G67A mutant (human) (UniProt P00167); remark: listed apart in the source
[10] = target: HLMWb5 G67S mutant (human) (UniProt P00167); remark: listed apart in the source
[11] = target: HLMWb5 L51I mutant (human) (UniProt P00167); remark: listed apart in the source
[12] = target: full-length form of human cytochrome b5 (human) (UniProt P00167); remark: listed apart in the source
[13] = target: heme-binding soluble domain of human liver microsomal cytochrome b5 with an NH2-terminal 6xHis-tag extension (HLMWb5) (human) (UniProt P00167)

## poly-L-lysine (peptide)
[1]
  half-wave potential E1/2 (vs. SHE) by cyclic voltammetry, poly-L-lysine 50~300 μM; shifts positively and reaches a plateau at 200 μM (value at 200 μM): -31.5 mV
[2]
  half-wave potential E1/2 (vs. SHE) by cyclic voltammetry, poly-L-lysine 50~300 μM; no dependency on the poly-L-lysine concentration observed (value at 200 μM): -29 mV
[3]
  half-wave potential E1/2 (vs. SHE) by cyclic voltammetry, poly-L-lysine 50~300 μM; similar concentration dependency as the wild type, with a significant negative shift (value at 200 μM): -40.5 mV
[4]
  half-wave potential E1/2 (vs. SHE) by cyclic voltammetry, poly-L-lysine 50~300 μM; similar concentration dependency as the wild type (value at 200 μM): -32 mV
[5]
  half-wave potential E1/2 (vs. SHE) by cyclic voltammetry, poly-L-lysine 50~300 μM; no dependency on the poly-L-lysine concentration observed (value at 200 μM): -30.5 mV
[6]
  half-wave potential E1/2 (vs. SHE) by cyclic voltammetry, Au electrode with β-mercaptopropionic acid, 200 μM poly-L-lysine, with Triton X-100: -20.5 mV
[7]
  midpoint potential (vs. SHE) by spectroscopic redox titration with 200 μM poly-L-lysine (-4.9 mV without poly-L-lysine): 9.6 mV
[8]
  midpoint potential (vs. SHE) by spectroscopic redox titration with 200 μM poly-L-lysine (-7.7 mV without poly-L-lysine): 11.7 mV
[9]
  midpoint potential (vs. SHE) by spectroscopic redox titration with 200 μM poly-L-lysine (-8.4 mV without poly-L-lysine): -2.7 mV
[10]
  midpoint potential (vs. SHE) by spectroscopic redox titration with 200 μM poly-L-lysine (-7.3 mV without poly-L-lysine): 14.2 mV
[11]
  midpoint potential (vs. SHE) by spectroscopic redox titration with 200 μM poly-L-lysine (-9.5 mV without poly-L-lysine): 10.5 mV
[12]
  midpoint potential (vs. SHE) by spectroscopic redox titration with 200 μM poly-L-lysine, 0.5% Triton X-100 (-2.6 mV without poly-L-lysine): 8.7 mV
[13]
  midpoint potential (vs. SHE) by spectroscopic redox titration, 15 μM protein with 200 μM poly-L-lysine, pH 7.0, 25°C (-3.2 mV without poly-L-lysine): 16.5 mV
